Measured values published in the supplement of paper PMC11865577.

What was measured:
Assay in all cases: pull-down binding Z-score (relative to library population); higher = stronger binding
[1] = tested on: G-clamp-N3 (biotin conjugate); conditions: RNA library: Library-1 (pre-miRNA loops + repeats)
Outline: (§1)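 Streptavidin beads with 100 pmol of biotin-conjugated small molecule were incubated for 60 min at 25 °C with 1 μg of heat-folded Cy5- or Cy3-end-labelled RNA library in phosphate/NaCl/KCl buffer. Bound RNA was eluted in hot SDS after three washes and hybridised to a DNA barcode microarray at 55.5 °C for 20 h. Each binding score is a library-referenced Z-score, computed after beads-only subtraction and a trimmed mean of barcoded replicate probes.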

[2] = tested on: TO-3-N3 (biotin conjugate); conditions: RNA library: Library-2
Outline: as §1

[3] = tested on: TO-3-N3-2 (biotin conjugate); conditions: RNA library: Library-2
Outline: as §1

TO-N3 (biotin conjugate) = conditions: RNA library: Library-2
Outline: as §1

[4] = tested on: TO-N3-2 (biotin conjugate); conditions: RNA library: Library-2
Outline: as §1

Sequence	pull-down binding Z-score [1]	pull-down binding Z-score [2]	pull-down binding Z-score [3]	pull-down binding Z-score (TO-N3 (biotin conjugate))	pull-down binding Z-score [4]
UGGAUCACGCCGACAACACUGGUCU [hsa-mir-4635]	-0.474	0.534	0.163	0.823	0.76
CAAUGAAGACAUGAAGACCCAAUGUCUUCAUUG [hsa-mir-4529]	-0.114	-0.88	-0.347	-1.17	-1.1
UCCUGGGAAGCAUGGUAGCCAGGA [hsa-mir-5192]	2.06	0.314	0.431	0.319	0.994
AAGCUCUUGCAGUAGGUUU [hsa-mir-1206]	0.242	-0.604	-0.358	-0.46	-0.369
CCUAGUGGCUAGCCCUGGGUCUAGCAGCCUAUGGCAGUGUCUGGUAAACACUGGUGGAGUCCUGGG [hsa-mir-6745]	0.335	-0.189	-0.307	0.336	1.22
AGCUGUUGAACUGGGAACCUGCU [hsa-mir-31]	0.781	-0.162	-0.00735	0.368	0.794
AAGUUCCCUCUGGCUGGAAC [hsa-mir-1249]	-0.433	0.574	-0.021	0.559	0.112
GACGGUGGGGGCCACGCUGACAGCCGC [hsa-mir-6804]	1.9	2.01	0.752	2.24	1.89
UCCAACCUGAAAUCCUUCUGUAGGUUGAG [hsa-mir-5702]	1.18	-0.291	-0.273	-0.245	0.0189
UUGUUCGUUGCAUUUUUAGGAACAA [hsa-mir-3613]	1.4	-1.11	-0.623	-1.52	-1.23
ACAUGCAGUAUUUGG [hsa-mir-1302-8]	0.976	-0.326	-0.047	-0.242	-0.0326
AUGGUUCCUAUUCUGAUCAAUAAACAUGGUUUGAGCCUAGUUACAAUGAUCUAAAAUUCACGGUCCAA [hsa-mir-548o]	-1.15	-0.961	-0.193	-0.587	-0.0344
UGGGAGGUAAGAGCUCUUCACCCUUCA [hsa-mir-197]	-0.817	-0.46	-0.132	-0.119	0.638
CUGAACUGGGCUGGGUUGAGCUGGGCUGGGCUGAGUUGAG [hsa-mir-4538]	1.51	4.18	5.75	3.25	2.71
GUUCGCUUAAUUUAUGACGAAUC [hsa-mir-487a]	0.269	-0.221	-0.215	-0.395	-0.483
UUGGUCUUUCCCCUGUGGUCCCAA [hsa-mir-2909]	-0.499	-0.158	0.152	-0.276	0.207
AUAUAGAUAUCAGCUACCUAUAU [hsa-mir-3144]	-0.95	-0.694	-0.329	-1.06	-1.38
AGGUUUAUGACUGGGCAUUUCUCACCCAAUGCCCAAUAUUGAACUU [hsa-mir-4431]	-0.59	-0.564	-0.213	-0.752	-0.666
UCAGGGAGAAAGUGCAUACAGCCCCUG [hsa-mir-328]	-0.344	-0.47	-0.166	-0.112	0.36

Sequence	pull-down binding Z-score [1]	pull-down binding Z-score [2]	pull-down binding Z-score [3]	pull-down binding Z-score (TO-N3 (biotin conjugate))	pull-down binding Z-score [4]
UGCCUUGUAGCAUUCAGGUCAAGCA [hsa-mir-103a-2]	0.0735	-0.594	-0.378	-0.524	0.0485
UGUAAAUAACUACAAUUCUCUUAACUCCGUAGCAGUUGC [hsa-mir-7844]	-1.5	-0.267	-0.0721	-0.11	0.177
ACGAUAUAGGUAUGUAUGUAUGUAUGUAUAAAAGCAGGGCAGUAUAUAUAUCGU [hsa-mir-4536-2]	1.53	0.847	0.723	0.862	0.482
CCCGGAUACCUCAGAAAUUCGG [hsa-mir-760]	-0.822	-0.07	-0.461	-0.0213	0.267
CACUCUCCCUAAUGGGGCUGAAGACAGCUCAGGGGCAGGGUG [hsa-mir-4472-1]	1.88	-0.357	-0.583	-0.273	0.191
CCAAGUCUGACCACCUGAGGAAUGCCUGG [hsa-mir-1269a]	-0.858	-0.498	-0.335	-0.288	0.719
CUCUAGACUCUAUUAUAGUUUCCUGAG [hsa-mir-558]	-1.03	-0.335	-0.582	-0.751	-0.545
GUUAGACCUGGCCCUCUGUCUAAU [hsa-mir-429]	-0.787	0.355	-0.136	0.564	0.3
UAUUGGGCCAAUUCCCCCAAUG [hsa-mir-4781]	-1.57	-1.13	-0.791	-1.38	-1.12
CUUCUUACUGCACCAGUGAAG [hsa-mir-5683]	-1.53	-0.186	-0.268	-0.0796	0.131
CUAAAUGGUACCCACUUUAUUUAG [hsa-mir-5687]	-0.726	-0.627	-0.0559	-0.76	-0.639
CAUUGGUGUAAAGCUGGAGACCCACUG [hsa-mir-324]	0.528	0.527	0.0332	0.738	1.09
GGGGCCUGUGGUCCC [hsa-mir-1268a]	0.885	-0.0124	-0.144	-0.282	-0.675
GUGAGUGUCUCUUGUCGC [hsa-mir-1281]	1.22	0.334	-0.252	0.328	0.25
UGUCGUAGAAAGUAAUGGCA [hsa-mir-548l]	0.662	0.0469	-0.0955	-0.189	-0.387
UCAGGAUCUACUCAUGUCGUCUUUGG [hsa-mir-573]	-1.01	-0.404	-0.199	-0.165	0.472
CGUGCACGUACCUGUCACAUGUGUACG [hsa-mir-3939]	-0.021	-0.72	-0.599	-0.867	-0.599
GUGUCCUUUCUUCUGAGAGCUGGACAC [hsa-mir-6500]	0.00177	-0.375	-0.39	-0.527	-0.336
